Test results taken from patent WO2001077362A1.

Target: purified soluble human HM1.24 antigen (HA-tagged, from soluble human HM1.24 antigen-expressing CHO cells) (human)
Assay: sandwich ELISA with purified antigen at 5000-fold dilution (about 76.4 ng/mL) captured by anti-HA antibody; lowest measurable antibody concentration

## reshaped human anti-HM1.24 antibody (humanized anti-HM1.24 antibody), light chain version a and heavy chain version s
  measurement limit: 500 pg/mL
